Laboratory results: PMC3898472, “Molecular Basis for DNA Double-Strand Break Annealing and Primer Extension by an NHEJ DNA Polymerase”

B1: annealed break T/D (dsDNA)
DNA 1: GCCGCAGATC
DNA 2: GCGGC
modifications: 5'-phosphate on D
B2: 1-nt gapped FP-T/FP-P/FP-D, 5'-P (dsDNA)
DNA 1: GGCAGCTTGGATCTTGTCGAAAAACGTCAACATTCGCCTAGGCTTCGGCAATACTGAGGTCTTGTCGAAAAACGTCAACATTGCGTGGCC
DNA 2: GGCCACGCAATGTTGACGTTTTTCGACAAGACCTCAGTAT
DNA 3: GCCGAAGCCTAGGCGAATGTTGACGTTTTTCGACAAGATCCAAGCTGCC
modifications: 5'-phosphate on FP-D

Columns and labels:
Mt-PolDom (crystal) = Mt-PolDom (crystal) (UniProt P9WNV3 1-300); test: crystal structure 2.4 A; 10 mM MnCl2; settings: protein: recombinant
[1] = biological target: Mt-PolDom (LigD polymerase domain) (UniProt P9WNV3 1-300); test: DNase I footprinting; 5 ug protein; settings: protein: recombinant; label: 32P 5'-end label

| Binder | binding result (Mt-PolDom (crystal)) | binding result [1] |
| --- | --- | --- |
| B1 | binds | – |
| B2 | – | binds |
